Reference: patent US20210221911A1 (NATIONAL CANCER CENTER JAPAN, published 2021)

B1: 1084ADC (ADC composed of the monoclonal antibody produced by clone No. 1084 and monomethyl auristatin E) (antibody, V domains shown)
VH: QVQLKESGPGLVQPSQTLSLTCIVSGFSLTNYNVHWVRQPAGAGLEWMGVIWTDGKTDYNSTLQSRLSISRDTSKSQVFLKMNSLQAEDIATYYCARDWDTGFDYWGQGVMVTVSS
VL: DIKMTQSPSSLSASLGERVTISCRASENINNILAWYQKKEDGSVKLLIHYTSNLQSGVPSRFSGSGSGKDYSLTISGLESEDIATYYCQQAYTPYAFGAGTKLELK
modifications: MMAE joined through a maleimide-PEG12-Val-Cit-PABA linker to sulfhydryl groups of the reduced antibody; sites and number not stated
notes: Whole rat monoclonal antibody from a rat-mouse hybridoma, conjugated to MMAE
B2: monoclonal antibody produced by clone No. 1084 (antibody, V domains shown)
VH: B1 VH
VL: B1 VL

Legend:
[1] = target: T1, recombinant human tissue factor (rhTF), residues 33 to 251 of hTF with C-terminal His6 tag (human, UniProt P13726 33-251); assay: SPR, ratio of koff values, reference 1849ADC
T1 construct: range 33-251; also called rhTF antigen
Method: (§1) SPR measurement was performed by using BiaCore T200 (GE Healthcare). The recombinant human tissue factor antigen (rhTF antigen) was subjected to buffer exchange to 10 mM sodium acetate solution (pH 5.0) and the final protein concentration was adjusted to 2 to 10 μg/mL. Subsequently, contact time was set to 30 seconds and the antigen was immobilized on a CM5 sensor chip (GE Healthcare) according to a basic protocol by using amine coupling. Then, 5 dilution series of the antibody solution were prepared by diluting each ADC solution in DPBS so that the final concentrations thereof became 320 nM, 160 nM, 80 nM, 40 nM, and 20 nM.

[2] = target: T1, recombinant human tissue factor (rhTF), …; assay: SPR, Biacore T200, rhTF on CM5 chip, single-cycle kinetics, bivalent analyte model
Method: as §1

[3] = target: recombinant human tissue factor (rhTF, SEQ ID NO: 13) (human, UniProt P13726 33-251); assay: ELISA screen of hybridomas on solid-phase rhTF
Description: (§2) Recombinant human tissue factor micellized using FCA adjuvant (rhTF, SEQ ID NO: 13) was intraperitoneally administered to Wister rats. After several immunizations, rat antisera were examined by ELISA using a solid phase having rhTFs thereon. A spleen was excised from a rat individual that had shown an increased antibody titer and splenocytes were obtained therefrom. The splenocytes and p3X63 mouse myeloma cells were fused by a PEG technique and cultivated in a HAT culture medium to select hybridoma cells. The hybridoma cells were screened to select those that reacted positively to rhTFs in ELISA and also reacted positively to cells expressing human tissue factor strongly such as an MCF7 cell in flow cytometry analysis. The selected hybridoma cells were cloned by limiting dilution to establish hybridoma cell clones that produced anti-tissue factor antibodies.

[4] = target: T2, human tissue factor on cells expressing it strongly such as MCF7 cells (human, UniProt P13726 33-295); assay: flow cytometry screen of hybridomas on cells expressing TF
T2 construct: whole, on cells; also called TF
Description: as §2

Row | Binder | koff relative to 1849ADC [1] | Kd [2] | koff [2] | kon [2] | binding result [3] | binding result [4]
1 | B1 | 39.3 times | 35 nM | 0.000825 s⁻¹ | 26100 M⁻¹ s⁻¹ | – | –
2 | B2 | – | – | – | – | binds | binds
